From PMC11417369, “DNA sequence and chromatin differentiate sequence-specific transcription factor binding in the human malaria parasite Plasmodium falciparum” come the findings set out here.

First the molecules themselves.
T1: HDP1 homeodomain-like (Plasmodium falciparum, UniProt Q8IKH4 2990-3078)
T1 sequence: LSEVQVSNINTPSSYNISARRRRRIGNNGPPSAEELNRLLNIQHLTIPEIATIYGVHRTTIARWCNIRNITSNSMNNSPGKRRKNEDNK

T2: AP2-G D1 (Plasmodium falciparum, UniProt Q8I5I9 2123-2245)
T2 sequence: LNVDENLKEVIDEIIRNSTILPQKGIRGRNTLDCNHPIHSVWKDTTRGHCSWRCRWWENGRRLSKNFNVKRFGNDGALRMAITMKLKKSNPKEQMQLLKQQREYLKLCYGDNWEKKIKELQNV

T3: SIP2 D1 (Plasmodium falciparum, UniProt C6KSN9 177-235)
T3 sequence: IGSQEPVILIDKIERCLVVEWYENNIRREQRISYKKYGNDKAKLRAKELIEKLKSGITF

B1: GTGCAC_site10021 (dsDNA)
DNA 1: ATAAAATATATATTAGTGCACTAAAGGAAAAAAAAT
DNA 2: ATTTTTTTTCCTTTAGTGCACTAATATATATTTTAT
B2: GTGCAC_negctrl_site246 (dsDNA)
DNA 1: TTAATTCTATACATAAATTATGTTTACATAAAGAAT
DNA 2: ATTCTTTATGTAAACATAATTTATGTATAGAATTAA
B3: XGTACX_site3596 (dsDNA)
DNA 1: AAGGAAAATTTTTGGTGTACACAAAAAAATCCAAAA
DNA 2: TTTTGGATTTTTTTGTGTACACCAAAAATTTTCCTT
B4: XGTACX_site5457 (dsDNA)
DNA 1: ATGGATAACAATATGTGTACACATTTATATCTCCAC
DNA 2: GTGGAGATATAAATGTGTACACATATTGTTATCCAT
B5: XGTACX_site6396 (dsDNA)
DNA 1: CCTATAATTAGGGGTAGTACACAAAAAAAAAAAAAA
DNA 2: TTTTTTTTTTTTTTGTGTACTACCCCTAATTATAGG
B6: XGTACX_site4899 (dsDNA)
DNA 1: TATTCGTGCAATAGTAGTACACTTATAAATTATTCT
DNA 2: AGAATAATTTATAAGTGTACTACTATTGCACGAATA
B7: XGTACX_site1704 (dsDNA)
DNA 1: CTCGTATATATAATACGTACATATTATATATATATA
DNA 2: TATATATATATAATATGTACGTATTATATATACGAG
B8: XGTACX_site820 (dsDNA)
DNA 1: ACAATTGAAGAAATACGTACATAAAGAAAAACTAGT
DNA 2: ACTAGTTTTTCTTTATGTACGTATTTCTTCAATTGT
B9: XGTACX_site2835 (dsDNA)
DNA 1: GGGGGGATGAGATATTGTACTTTTTAGGAAAGTGTA
DNA 2: TACACTTTCCTAAAAAGTACAATATCTCATCCCCCC
B10: XGTACX_site6887 (dsDNA)
DNA 1: TATTTTCCATGAGGTAGTACACATTAAAAAATCGTT
DNA 2: AACGATTTTTTAATGTGTACTACCTCATGGAAAATA
B11: XGTACX_site5429 (dsDNA)
DNA 1: ATGGACATCTATTGTTGTACACATTTTCCCATAACA
DNA 2: TGTTATGGGAAAATGTGTACAACAATAGATGTCCAT
B12: XGTACX_site4340 (dsDNA)
DNA 1: TGATACTTTTTTTGTAGTACTCCTAAAATTATAAAA
DNA 2: TTTTATAATTTTAGGAGTACTACAAAAAAAGTATCA
B13: XGTACX_site3301 (dsDNA)
DNA 1: TTTTCTTTTTGTTCGTGTACACACATGAAATTTATA
DNA 2: TATAAATTTCATGTGTGTACACGAACAAAAAGAAAA
B14: XGTACX_site7607 (dsDNA)
DNA 1: AATATACAATAAAGGTGTACACATATATGATGCAAG
DNA 2: CTTGCATCATATATGTGTACACCTTTATTGTATATT
B15: XGTACX_site146 (dsDNA)
DNA 1: GGACGTATTAAAAGGCGTACACTAAATATTTTATGT
DNA 2: ACATAAAATATTTAGTGTACGCCTTTTAATACGTCC
B16: XGTACX_site4956 (dsDNA)
DNA 1: AATAAATGGAAAAGGTGTACACAAAAAAAAGGGAAA
DNA 2: TTTCCCTTTTTTTTGTGTACACCTTTTCCATTTATT
B17: XGTACX_site7325 (dsDNA)
DNA 1: TTTTTTTTATTTTGTTGTACGCTTATTTGTATATAT
DNA 2: ATATATACAAATAAGCGTACAACAAAATAAAAAAAA
B18: XGTACX_site3586 (dsDNA)
DNA 1: TATACATACATTAGACGTACACATTTTACCTACACC
DNA 2: GGTGTAGGTAAAATGTGTACGTCTAATGTATGTATA
B19: XGTACX_site7025 (dsDNA)
DNA 1: TTTTTCTTTTTTTGGGGTACAGGGAAATCTATATTT
DNA 2: AAATATAGATTTCCCTGTACCCCAAAAAAAGAAAAA
B20: XGTACX_site7170 (dsDNA)
DNA 1: GTTTAGATAAAAGGGCGTACATCTATTTTTGACTAA
DNA 2: TTAGTCAAAAATAGATGTACGCCCTTTTATCTAAAC
B21: XGTACX_site8267 (dsDNA)
DNA 1: AGATAAATATATTGTAGTACAGGAGCATAAATATAT
DNA 2: ATATATTTATGCTCCTGTACTACAATATATTTATCT
B22: XGTACX_site718 (dsDNA)
DNA 1: GTATTAATTTTAAGGTGTACGCAAAAAATTTAATTT
DNA 2: AAATTAAATTTTTTGCGTACACCTTAAAATTAATAC
B23: XGTACX_site206 (dsDNA)
DNA 1: TGTTTATACATCAGGTGTACGCAAAATAATTGTATG
DNA 2: CATACAATTATTTTGCGTACACCTGATGTATAAACA
B24: XGTACX_site96 (dsDNA)
DNA 1: TGGAACCATAAAAAGTGTACACATATAAAAAATATG
DNA 2: CATATTTTTTATATGTGTACACTTTTTATGGTTCCA
B25: XGTACX_site3444 (dsDNA)
DNA 1: TATATTATATATTTATGTACGTATTTGTAAAAAGAT
DNA 2: ATCTTTTTACAAATACGTACATAAATATATAATATA
B26: XGTACX_site7727 (dsDNA)
DNA 1: GGTGTATGTTAAAGGAGTACATATATATATATATAT
DNA 2: ATATATATATATATATGTACTCCTTTAACATACACC
B27: XGTACX_site8307 (dsDNA)
DNA 1: AAATTATAAAAATGTAGTACAGACAATATATTCGTA
DNA 2: TACGAATATATTGTCTGTACTACATTTTTATAATTT
B28: XGTACX_site2251 (dsDNA)
DNA 1: GTGTAAAAATTAAAGTGTACACATATATATATATAT
DNA 2: ATATATATATATATGTGTACACTTTAATTTTTACAC
B29: XGTACX_site4991 (dsDNA)
DNA 1: TAAAATAATATATGGTGTACACAAAAGTATAAATAA
DNA 2: TTATTTATACTTTTGTGTACACCATATATTATTTTA
B30: XGTACX_site7745 (dsDNA)
DNA 1: GGGGACGCGGGTGGGGGTACTCACACTATGCAAAAT
DNA 2: ATTTTGCATAGTGTGAGTACCCCCACCCGCGTCCCC
B31: XGTACX_site1983 (dsDNA)
DNA 1: GTTTGGTGGTGTTTTGGTACGTACGGGGGGGTATGT
DNA 2: ACATACCCCCCCGTACGTACCAAAACACCACCAAAC
B32: XGTACX_site3746 (dsDNA)
DNA 1: ATATAAAATATTACGTGTACACATAAATAAAAATAA
DNA 2: TTATTTTTATTTATGTGTACACGTAATATTTTATAT
B33: XGTACX_site4176 (dsDNA)
DNA 1: ATAAATTTAAATAGGAGTACACAGCTTTATATTTTG
DNA 2: CAAAATATAAAGCTGTGTACTCCTATTTAAATTTAT
B34: XGTACX_site8426 (dsDNA)
DNA 1: TAATATTTATAATAGTGTACACAATTATAAACTGAA
DNA 2: TTCAGTTTATAATTGTGTACACTATTATAAATATTA
B35: XGTACX_site6072 (dsDNA)
DNA 1: CGTTTATATTTTAACTGTACTCAAAAAGTGCATTGT
DNA 2: ACAATGCACTTTTTGAGTACAGTTAAAATATAAACG
B36: XGTACX_site6231 (dsDNA)
DNA 1: ATGTTTTATAAAAGGCGTACACATATATTTAAGTAA
DNA 2: TTACTTAAATATATGTGTACGCCTTTTATAAAACAT
B37: XGTACX_site8253 (dsDNA)
DNA 1: TTTTATGAAAAGATGAGTACACAATACTTTTTAATT
DNA 2: AATTAAAAAGTATTGTGTACTCATCTTTTCATAAAA

In the first series the target is T1, HDP1 homeodomain-like. Kind of series: gcPBM; about 25 ug protein; PBS, 1% milk, 0.2 mg/ml BSA, salmon testes DNA, 0.03% Triton X-100. The conditions noted are these: tags: N-terminal GST (pGEX-4T-1), kept; chain copies: 2; label: surface-attached array probe.
For B1, the binding signal is 11.6 ln median PBM intensity, better of two orientations.
For B2, the binding signal was 6.34 ln median PBM intensity, better of two orientations.

Another series addresses T2, AP2-G D1. The series is described as above. The conditions noted are these: tags: N-terminal GST (pGEX-4T-1), kept; label: surface-attached array probe.
As for B3, the binding signal is 12.8 ln median PBM intensity, better of two orientations.
As for B4, the binding signal is 12.8 ln median PBM intensity, better of two orientations.
Same read-out and setting: the same measure for B5: 12.8 ln median PBM intensity, better of two orientations; for B6: 12.7 ln median PBM intensity, better of two orientations; for B7: 12.9 ln median PBM intensity, better of two orientations.
As to B8, the binding signal was 12.9 ln median PBM intensity, better of two orientations.
Same read-out and setting: the same measure for B9: 13.2 ln median PBM intensity, better of two orientations; for B10: 12.8 ln median PBM intensity, better of two orientations; for B11: 13.1 ln median PBM intensity, better of two orientations.
Turning to B12, the binding signal was 12.8 ln median PBM intensity, better of two orientations.
Still for that read-out and setting: to B13 belongs 13 ln median PBM intensity, better of two orientations; to B14, 12.8 ln median PBM intensity, better of two orientations.
Same read-out and setting: the same measure for B15: 12.8 ln median PBM intensity, better of two orientations; for B16: 12.8 ln median PBM intensity, better of two orientations; for B17: 12.8 ln median PBM intensity, better of two orientations.
As to B18, the binding signal is 12.8 ln median PBM intensity, better of two orientations.
The same measure, in the same setting: to B19 belongs 12.7 ln median PBM intensity, better of two orientations.
Still for that read-out and setting: the same measure for B20: 12.7 ln median PBM intensity, better of two orientations; for B21: 12.8 ln median PBM intensity, better of two orientations; for B22: 13.1 ln median PBM intensity, better of two orientations.
Still for that read-out and setting: the same measure for B23: 12.7 ln median PBM intensity, better of two orientations.
B24: the binding signal is 12.8 ln median PBM intensity, better of two orientations.
On the same count and under the same terms, the same measure for B25: 12.8 ln median PBM intensity, better of two orientations; for B26: 12.7 ln median PBM intensity, better of two orientations.
For B27, the binding signal was 12.7 ln median PBM intensity, better of two orientations.
Take B28: the binding signal was 12.8 ln median PBM intensity, better of two orientations.
The same measure, in the same setting: to B29 belongs 13.2 ln median PBM intensity, better of two orientations.
On the same count and under the same terms, to B30 belongs 13 ln median PBM intensity, better of two orientations.
For the molecule B31, the binding signal was 12.7 ln median PBM intensity, better of two orientations.
Still for that read-out and setting: the same measure for B32: 13 ln median PBM intensity, better of two orientations; for B33: 13 ln median PBM intensity, better of two orientations; for B34: 12.7 ln median PBM intensity, better of two orientations.
For B35, the binding signal is 12.7 ln median PBM intensity, better of two orientations.
Still for that read-out and setting: the same measure for B36: 13.5 ln median PBM intensity, better of two orientations; for B37: 12.7 ln median PBM intensity, better of two orientations.

The target of another series is AP2-I D3 (Plasmodium falciparum, UniProt Q8IJW6 910-1027). The series is described as above. The following applies: tags: N-terminal GST (pGEX-4T-1), kept; label: surface-attached array probe.
Take B1: the binding signal is 12.4 ln median PBM intensity, better of two orientations.
As for B2, the binding signal is 7.16 ln median PBM intensity, better of two orientations.

The next series deals with T3, SIP2 D1. The series is described as above. The following applies: tags: N-terminal GST (pGEX-4T-1), kept; label: surface-attached array probe.
Take B1: the binding signal was 10.4 ln median PBM intensity, better of two orientations.
Take B2: the binding signal was 6.9 ln median PBM intensity, better of two orientations.
